Consider one molecule from patent publication US20230071765A1, “COMPOSITIONS HAVING THIOREDOXIN ACTIVITY AND RELATED METHODS” (ORPRO THERAPEUTICS, INC., priority 2020, published 2023).

The test system of this assay is mucins of 4% HBE mucus. As to the kind of experiment: mucin molecular weight by GPC-MALLS. The assay is classed as biochemical, human. The note with it: all three concentrations (0.01, 0.1, 1.0 mM), 1 hr at 37° C.; untreated 180 MDa. The source says:
Mucus Preparation: Aseptic mucus was harvested from over 100 individual HBE cultures from 20 different CF donors and prepared to four weight-percent (4%) solids, a concentration that typifies chronic obstructive pulmonary disease (COPD) and mild CF (Hill, D. B. et al., 2014, A biophysical basis for mucus solids concentration as a candidate biomarker for airways disease, PloS one 9, e87681; Anderson, W. H. et al., 2015, The relationship of mucus concentration (hydration) to mucus osmotic pressure and transport in chronic bronchitis., Am J Resp Crit Care Med 192: 182-90). […] Creep recovery experiments were performed in which a known stress (between 0.05 and ˜100 Pa) was applied to treated or control mucus for 10 seconds, and the rheological recovery of the fluid was recorded for an additional 50 seconds. […] From the measured parameters the viscosity and elasticity of the fluid were determined as a function of applied stress. […] Mucin molecular weight determination: Molecular weight reduction following test article treatment was determined using a combination of gel-permeation chromatography with multi-angle laser light scattering on a Wyatt Heleos MALLS system. […] Mucin MW was determined by fitting a Berry model to light scattering from 11 different angles using Wyatt Astra software. […]

B1: ORP100S: thioredoxin with monothiol active site, Cys35 and non-active Cys 62, 69 and 73 substituted with serine (SEQ ID NO:29) (protein)
chain: MVKQIESKTAFQEALDAAGDKLVVVDFSATWCGPSKMIKPFFHSLSEKYSNVIFLEVDVDDSQDVASESEVKSMPTFQFFKKGQKVGEFSGANKEKLEATINELV
modifications: synthetic peptide motif
As to B1, the “molecular weight of mucins” value was “ca. 150 MDa”.
